Article PMC6381110, “Allosteric enhancement of ORP1-mediated cholesterol transport by PI(4,5)P2/PI(3,4)P2” (Nature Communications, 2019)
Several values for one entry are separate records, joined by “and”; a condition that tells them apart may be missing. Equal entries are not always repeated.

Assays:
[1] = biological target: the molecule itself; test: crystal structure; ORP1-ORD (534-950) with cholesterol, hanging drop 18 °C, 0.1 M Na cacodylate pH 6.2, 1.2 M Na citrate; oligomer by crystal symmetry
[2] = biological target: the molecule itself; test: crystal structure; ORP1-ORD (524-950) with cholesterol, hanging drop 18 °C, 0.1 M NaAc pH 4.6, 2.0 M Na formate; oligomer by crystal symmetry
[3] = biological target: the molecule itself; test: SEC; Superdex-200 10/300, 10 mM Tris-HCl pH 8.0, 150 mM NaCl, 2 mM DTT; ORP1-ORD 5 uM alone or with cholesterol (free or in liposomes, 4:1); cholesterol shifts the protein towards monomer

B1: ORP1-ORD (residues 534-950) (domain or fragment, human, UniProt Q9BXW6 534-950, looked up)
chain: RTSLPSPMFSRNDFSIWSILRKCIGMELSKITMPVIFNEPLSFLQRLTEYMEHTYLIHKASSLSDPVERMQCVAAFAVSAVASQWERTGKPFNPLLGETYELVRDDLGFRLISEQVSHHPPISAFHAEGLNNDFIFHGSIYPKLKFWGKSVEAEPKGTITLELLEHNEAYTWTNPTCCVHNIIVGKLWIEQYGNVEIINHKTGDKCVLNFKPCGLFGKELHKVEGYIQDKSKKKLCALYGKWTECLYSVDPATFDAYKKNDKKNTEEKKNSKQMSTSEELDEMPVPDSESVFIIPGSVLLWRIAPRPPNSAQMYNFTSFAMVLNEVDKDMESVIPKTDCRLRPDIRAMENGEIDQASEEKKRLEEKQRAARKNRSKSEEDWKTRWFHQGPNPYNGAQDWIYSGSYWDRNYFNLPDIY
notes: OSBP-related domain (ORD) of human ORP1, residues 534-950 on ORP1L (1-950) numbering; Crystallised with cholesterol from Na cacodylate; also called ORP1-ORD (534-950); ORP1S lacking the N-terminal 20 amino acids; source: E. coli Rosetta(DE3), purified (Ni-NTA, ion exchange, gel filtration)
stoichiometry N [1]: 2

B2: ORP1-ORD (residues 524-950) (domain or fragment, human, UniProt Q9BXW6 524-950, looked up)
chain: DALSNGIKKHRTSLPSPMFSRNDFSIWSILRKCIGMELSKITMPVIFNEPLSFLQRLTEYMEHTYLIHKASSLSDPVERMQCVAAFAVSAVASQWERTGKPFNPLLGETYELVRDDLGFRLISEQVSHHPPISAFHAEGLNNDFIFHGSIYPKLKFWGKSVEAEPKGTITLELLEHNEAYTWTNPTCCVHNIIVGKLWIEQYGNVEIINHKTGDKCVLNFKPCGLFGKELHKVEGYIQDKSKKKLCALYGKWTECLYSVDPATFDAYKKNDKKNTEEKKNSKQMSTSEELDEMPVPDSESVFIIPGSVLLWRIAPRPPNSAQMYNFTSFAMVLNEVDKDMESVIPKTDCRLRPDIRAMENGEIDQASEEKKRLEEKQRAARKNRSKSEEDWKTRWFHQGPNPYNGAQDWIYSGSYWDRNYFNLPDIY
notes: OSBP-related domain (ORD) of human ORP1, residues 524-950 on ORP1L (1-950) numbering; Crystallised with cholesterol and with PI(4,5)P2; also called ORP1-ORD (524-950); source: E. coli Rosetta(DE3), purified (Ni-NTA, ion exchange, gel filtration)
stoichiometry N [2]: 3

B3: ORP1S (ORP1-ORD, residues 514-950) (natural protein, human, UniProt Q9BXW6 514-950, looked up)
chain: MSEEKDCGGGDALSNGIKKHRTSLPSPMFSRNDFSIWSILRKCIGMELSKITMPVIFNEPLSFLQRLTEYMEHTYLIHKASSLSDPVERMQCVAAFAVSAVASQWERTGKPFNPLLGETYELVRDDLGFRLISEQVSHHPPISAFHAEGLNNDFIFHGSIYPKLKFWGKSVEAEPKGTITLELLEHNEAYTWTNPTCCVHNIIVGKLWIEQYGNVEIINHKTGDKCVLNFKPCGLFGKELHKVEGYIQDKSKKKLCALYGKWTECLYSVDPATFDAYKKNDKKNTEEKKNSKQMSTSEELDEMPVPDSESVFIIPGSVLLWRIAPRPPNSAQMYNFTSFAMVLNEVDKDMESVIPKTDCRLRPDIRAMENGEIDQASEEKKRLEEKQRAARKNRSKSEEDWKTRWFHQGPNPYNGAQDWIYSGSYWDRNYFNLPDIY
notes: ORP1S, the short isoform encoded by human OSBPL1A, residues 514-950 on the numbering of the long isoform ORP1L (1-950); holds only the ORD; pET21b construct; In gel filtration it is a mixture of monomers, dimers and trimers; also called short isoform of OSBPL1A; source: E. coli Rosetta(DE3), purified (Ni-NTA, ion exchange, gel filtration)
stoichiometry N [3]: 2 and 3
